Results as given in patent US20240174744A1 (SCIRHOM, published 2024).

biological target: T1, miR2-FL-WT-T7 (mouse iRhom2 full length wild type C-terminally tagged with 3 consecutive copies of the T7 … (mouse, UniProt Q80WQ6 1-827)); test: FACS on cells of the row mouse iR2 wild type, vs human iR2 wild type = 100%
T1 construct: also called mouse iRhom2 variant expressed by MEF-DKO-miR2-FL-WT-T7 cells
T1 sequence: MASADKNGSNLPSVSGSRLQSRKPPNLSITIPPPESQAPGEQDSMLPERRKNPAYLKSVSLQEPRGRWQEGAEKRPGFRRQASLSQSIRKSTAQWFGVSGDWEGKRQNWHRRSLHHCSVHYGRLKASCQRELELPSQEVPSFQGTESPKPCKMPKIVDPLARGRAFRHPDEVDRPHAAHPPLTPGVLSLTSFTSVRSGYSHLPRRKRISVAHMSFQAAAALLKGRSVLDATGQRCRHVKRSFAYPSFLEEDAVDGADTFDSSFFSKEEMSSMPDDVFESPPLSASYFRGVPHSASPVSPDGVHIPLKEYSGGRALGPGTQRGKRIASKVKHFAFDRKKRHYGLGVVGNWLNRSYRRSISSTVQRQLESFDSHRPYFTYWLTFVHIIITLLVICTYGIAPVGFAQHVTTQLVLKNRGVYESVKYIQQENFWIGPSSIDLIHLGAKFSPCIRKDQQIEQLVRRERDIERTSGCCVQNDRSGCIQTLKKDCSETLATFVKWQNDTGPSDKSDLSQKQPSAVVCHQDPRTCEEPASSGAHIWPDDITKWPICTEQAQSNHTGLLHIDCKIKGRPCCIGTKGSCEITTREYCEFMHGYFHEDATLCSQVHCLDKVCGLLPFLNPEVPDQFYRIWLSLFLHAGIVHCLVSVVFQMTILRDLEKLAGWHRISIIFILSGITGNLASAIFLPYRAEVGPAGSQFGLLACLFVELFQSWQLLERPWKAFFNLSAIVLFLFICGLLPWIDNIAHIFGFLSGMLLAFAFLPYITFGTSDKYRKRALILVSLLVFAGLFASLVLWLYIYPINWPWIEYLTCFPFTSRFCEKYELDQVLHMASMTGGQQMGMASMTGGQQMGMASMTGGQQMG
Description: In brief, immortalized MEF-DKO-hiR2-FL-WT-T7 cells, MEF-DKO-miR2-FL-WT-T7 cells and MEF-DKO-hiR2-FL-R441K-T7, MEF-DKO-hiR2-FL-K443R-T7, MEF-DKO-hiR2-FL-V459I-T7, MEF-DKO-hiR2-FL-G481Q-T7, MEF-DKO-hiR2-FL-L488R-T7, MEF-DKO-hiR2-FL-L493I-T7, MEF-DKO-hiR2-FL-D496T-T7, MEF-DKO-hiR2-FL-H505R-T7, MEF-DKO-hiR2-FL-Q512L-T7, MEF-DKO-hiR2-FL-R513K-T7, MEF-DKO-hiR2-FL-D528N-T7, MEF-DKO-hiR2-FL-P533-T7, MEF-DKO-hiR2-FL-M534S-T7, MEF-DKO-hiR2-FL-G540S-T7, MEF-DKO-hiR2-FL-R543Q-T7, MEF-DKO-hiR2-FL-T544P-T7, MEF-DKO-hiR2-FL-G546A-T7, MEF-DKO-hiR2-FL-A547V-T7, MEF-DKO-hiR2-FL-R582Q-T7, MEF-DKO-hiR2-FL-F588L-T7, MEF-DKO-hiR2-FL-M591I-T7, MEF-DKO-hiR2-FL-E594K-T7, MEF-DKO-hiR2-FL-E626D-T7, MEF-DKO-hiR2-FL-L657I-T7, and MEF-DKO-hiR2-FL-H835Y-T7 cells were harvested with 10 mM EDTA in PBS, washed and resuspended in FACS buffer (PBS, 3% FBS, 0.05% sodium azide), and seeded in Nunc U-bottom 96-well plates (Thermo Fisher Scientific, USA) at approximately 3×10⁵ cells per well. To pellet cells and remove supernatants, the plates were centrifuged at 1,500 rpm and 4° C. for 3 minutes. For primary staining, cells were resuspended in 100 μl per well of either FACS buffer alone (controls) or the purified antibodies 3, 5, 16, 22, 34, 42, 43, 44, 48, and 50 of the present disclosure at 3 μg/ml FACS buffer and incubated on ice for 1 hour. Afterwards, plates were centrifuged at 1,500 rpm and 4° C. for 3 minutes and washed twice with 200 μl per well of FACS buffer. For secondary staining, cells were spun down and resuspended in 100 μl per well of PE-conjugated goat anti-mouse IgG F(ab′)2 detection fragment (Dianova, Germany) diluted 1:100 in FACS buffer. Protected from light, the cell suspensions were incubated on ice for 1 hour. Plates were then centrifuged at 1,500 rpm and 4° C. for 3 minutes and washed three times with 200 μl per well of FACS buffer. Finally, cells were resuspended in 150 μl per well of FACS buffer and analyzed using a BD Accuri™ C6 Plus flow cytometer (Becton Dickinson, Germany).

Binder	grade of loss of binding vs wild type
antibody 43 (antibody, V domains shown, Mouse IgG, kappa light chain; also called clone #43) VH: QVALKESGPGILQPSQTLSLTCSFSGFSLSTFGMGVGWIRQSSGKGLEWLANIWWDDDKYYNPALKSRLTISKDASKNQAFLKIANVDTADTATYYCARIGNYGSNYWYFDVWGTGTTVTVSS VL: QIVLTQSPAIMSASPGERVTMTCSANSRISYMYWYQQKPGSSPRLLIYDTSNLASGVPVRFSGSGSGTSYSLTISRMEAEDAATYNCQQWSSYPLTFGAGTKLELK	3 grade (3 => 95% loss of binding vs wild type)
antibody 5 (antibody, V domains shown, Mouse IgG, kappa light chain; also called clone #5; purified antibody 5) VH: QVTLKESGPGILQPSQTLSLTCSFSGFSLSTFGMGVGWIRQPSGKGLEWLAHIWWDDEKYYNSALKSRLTISKATSKNQAFLKIANVDTADTATYYCARISNYGSNYWYFNVWGTGTTVTVSS VL: QVVLTQSPALMSASPGEKVTMTCSAGSSVSCMYWYQQKPGSSPRVLIYDTSNLASGVPARFTGSGSGTSYSLTISRMEAEDAASYYCQQWNSYPLTFGAGTKLELK	3 grade (3 => 95% loss of binding vs wild type)
antibody 42 (antibody, V domains shown, Mouse IgG, kappa light chain; also called clone #42; m42) VH: QVTLKESGPGILQPSQTLSLTCSLSGFSLSTFGRGVGWIRQPSGKGLEWLAHIWWDDEKYYNPALKSRLTISKDTSKNQVFLRIANVDTADTATYYCARIQNYGSNYWYFDVWGTGTTVTVSS VL: LIVLTQSPAIMSASPGEKVTMTCGATSRISYMFWYQQKPGSSPRVLIYDTSNLASGVPVRFSGSGSGTSYSLTISRVEAEDVATYYCQQWNSYPLTFGAGTKLELK	3 grade (3 => 95% loss of binding vs wild type)
antibody 44 (antibody, V domains shown, Mouse IgG, kappa light chain; also called clone #44; m44) VH: QVTLKESGPGILQPSQTLSLTCSFSGFSLSTFGMGVGWIRQPSEKGLEWLAHIWWDDDKYYNPALKSRLTISKDTSKNQIFLKITNVDTAETATYYCSRIGNYGSNYWYFDVWGTGTTVTVSS VL: QIVLTQSPAVMSASPGEKVTMTCTASSSVYYMYWYQQTPGSSPRLLIYDTSNLASGVPVRFSGSGSGTSYSLTISRMEAEDAATYYCQQWNTYPLTFGAGTKLELK	3 grade (3 => 95% loss of binding vs wild type)
antibody 22 (antibody, V domains shown, Mouse IgG, kappa light chain; also called clone #22; m22) VH: QVTLKESGPGILQPSQTLSLTCSFSGFSLSTFGMGVGWIRQPSGKGLEWLAHIWWDDEKYYNSALKSRLTISKATSKNQVFLKIANVDTADTATYYCARISNYGSNYWYFNVWGTGTTVTVSS VL: QVVLTQSPALMSASPGEKVTMTCSAGSSVSYMYWYQQKPGSSPRVLIYDTSNLASGVPARFTGSGSGTSYSLTISRMEAEDAATYYCQQWNSYPLTFGAGTKLELK	3 grade (3 => 95% loss of binding vs wild type)
antibody 34 (antibody, V domains shown, Mouse IgG, kappa light chain; also called clone #34; m34) VH: QVTLKESGPGILQPSQTLSLTCSFSGFSLSTFSLGVGWIRQSSGKGLEWLAHIWWDDEKYYNPALKSRLTISKDTSKNQVFLKIANVDAADTATYYCARAYYSKSYYALDYWGQGTSVTVSS VL: DIQMTQSPSSLSASLGERVSLTCRASQEISGYLSWLQQKPDGTIKRLIYAASTLDSGVPKRFSGSRSGSDYSLAISSLESEDFADYYCLQYANFPFTFGSGTKLEIK	3 grade (3 => 95% loss of binding vs wild type)
antibody 16 (antibody, V domains shown, Mouse IgG, kappa light chain; also called clone #16; m16) VH: QVTLKESGPGILQPSQTLSLTCSFSGFSLSTFALGVGWIRQPSGRGLEWLAHIWWDDDKYYNPALKSRLTISKDTSKNHVFLKIANVDTADTATYYCARITTYYYGMDYWGQGTSVTVSS VL: DIVLSQSPATLSVTPGDSVSLFCRASQSIGNHLHWYQQESHASPRLLIKYASQSISGIPSRFSGSGSGTDFTLSINSVETEDFGMYFCQQSYNWPLTFGAGTKLELK	3 grade (3 => 95% loss of binding vs wild type)
antibody 3 (antibody, V domains shown, Mouse IgG, kappa light chain; also called clone #3; purified antibody 3) VH: QVTLKESGPGILQPSQTLSLTCSFSGFSLTTFAMGIGWVRQPSGKGLEWLAHIWWDGEKYNNPVLKSRLTISKDTSKNQVFLRIANVDTPDTATYYCARISSIYYIIDNWGQGTSVTVSS VL: DIVLTQSPATLSVTPGHSVSLSCRASQSISNNLHWYQKKSHESPRLLIKYVSQSISGIPSRFSGSGSGTDFTLSINSVETEDFGMYFCQQSYNWPLTFGAGTKLELK	3 grade (3 => 95% loss of binding vs wild type)
antibody 50 (antibody, V domains shown, Mouse IgG, kappa light chain; also called clone #50; purified antibody 50) VH: QVQLQQSGAELVRPGASVKVSCKASGYAFSNYLIEWVKQRPGQGLEWIGVINPGSGFTKYNEKFKGKATLTADKSSSTAYMQLSSLTSEDSAVYFCARGLYRAMDYWGQGTSVTVSS VL: DIQMTQSPASQSASLGESVTITCLASQTIGTWLAWYQQKPGKSPQLLIYAAASLADGVPSRFSGGGSGTKFSFKISSLQAEDFVNYYCQQIYSTPYTFGGGTKLEIK	3 grade (3 => 95% loss of binding vs wild type)
